What is called Km is the substrate concentration at which the rate is half of its maximum.

Substrate in the data set: CC(C)=CCc1cc(CO)ccc1O
The experiment in a line: purified protein. The format is biochemical, Boreostereum vibrans. The conditions noted are these: NADPH 0.1 mM, 50 mM sodium phosphate pH 7.5, 28 °C, 30 min.

B1: VibO (Boreostereum vibrans) (protein)
chain: MAAVENFEGYVEPELFERPGTSLPNKLGVMPQLTWPNVLNGTNCEKPAVPNYKPPSKVDVIIIGAGPVGLTTAACLLRQGITVRILDRSPHPLPVGRADGLQPRSMEVFDLLGLGEEVYHVGIRVEHTTVYKDGKQHIFAESHQAPGNEAHYTGLHACTQTEVEHLLIRDLIRHDILVERPCTATSYTFDEEADASVTHPITVNITNEATGAEEVVTARFLVGSDGAHSMIRKSLPIEFPGVKTDLHWGIVDAVINSDFPHRWTFGTVLNSEYGGCLIIPRERNMVRLYVQLRAEPGKAFDHSKWGPEEILVILNKVFAPYTLSYAEPVDWYTILTINERVATSFTYKDRIFLAGDSCHVHSAKGAFGMNTGVMDAHNLAWKLAMLCRGIAKPSLLASYDVERRENALRAVATSARYLRFVGNCTFQAIDGSGEVDKEADELVVPPGEDKDVFYFKKFVGQVGRFLIGLDVDYAENALNKLSPAVSRARAGYRASNPRVALSRSHSGRLYHSFGHLGQFTLLVFASNMGGALNAKLHALDSYLAGPSSFYHAYGGADTFKIVVVVRATPSQADQRVKTFPFLSKAGHTVYDDQLPLSHFGGDAHALYGVSHEEGAIVVVRPDSWIGTSSTISDARSLESYFDGFLFKSTEGSY
notes: full length, N-terminal His6 tag, expressed in E. coli BL21(DE3) (pET28a(+)); domains cover residues 1-653; dimer; copurified FAD
With B1, the Km amounted to 407 ± 83 µM and the kcat amounted to 0.111 ± 0.010 min^–1.

Values taken from publication PMC10257657, “A flavin-monooxygenase catalyzing oxepinone formation and the complete biosynthesis of vibralactone” (Nature Communications, 2023).
